Legend:
[1] = tested on: Nalm-6 cells; assay: 48 hour cytotoxicity assay, T cells co-cultured with Nalm-6 NucRed cells, Incucyte (Example 7; Table 21); assay type: cell-based
Procedure: For cytotoxicity assays, T cells were thawed and co-cultured with Nalm-6 cells (stably expressing NucRed®) at different T cells to Nalm-6 cell culture ratios. Target cell viability was determined by measuring cellular fluorescence over time using an Incucyte assay and the results are shown in Table 21.

[2] = tested on: T cells; assay: Percentage of CAR positive cells after 10 days expansion (Example 7); assay type: cell-based; conditions: T cells expanded for 10 days
[3] = tested on: CD19+ Nalm6 tumors; assay: Nalm6-Luc tumor burden by BLI, mean total flux, NSG mice, B7.1 TM mbIL12 constructs (Example 10; Table 34); assay type: in vivo
Procedure: To test in vivo anti-tumor activity, experiments were performed in NSG mice. Nalm6 cells were transfected with Redifect Red-Fluc (Perkin Elmer) under selection using Puromycin for ˜2 months to generate a line that stably expresses the luciferase reporter; thereafter named Nalm6-Luc. Ten days before tumor implantation, Nalm6-Luc cells were thawed and cultured in puromycin-containing media. On day 0, cells were counted, resuspended in PBS and injected into NSG mice via tail vein. On day 6, mice were imaged for bioluminescent intensity (BLI) and sorted into groups based on their tumor size ensure that all groups had the same sized tumors. Human T cells were transduced with one of the following constructs as shown in the study design in Table 33:
Next, holding total CAR+ T cell dose constant at 1 million cells per animal, transduced T cells were intravenously infused into mice on day 7. Tumors were monitored in mice using BLI and the mean of the Total Flux (photons/second) was calculated for each group as an indicator of tumor burden (Table 34). In order to track the trans effect of IL12 expressing CART cells on that lack expression of IL12, 10 million GFP+ T cells (negative for IL12) were co-infused with the IL12-expressing CAR+ T cells, and peripheral blood draws taken over time to evaluate the effect of IL12 on phenotypic changes in GFP+ T cells by flow cytometry analysis.

[4] = tested on: phospho-STAT4 in GFP+ T cells; assay: Bystander effect: phospho-STAT4 in GFP+ T cells incubated 1 hour with co-culture supernatants, flow cytometry (Example 6; Table 20); assay type: cell-based, human
Procedure: (§1) Membrane bound IL12 (mbIL12) was expressed in tandem with a CD19-CAR and tested in primary human T cells. On day 0, primary human T cells were stimulated with Dynabeads (T-expander CD3/CD28) at a 3:1 bead:cell ratio in media containing 10% fetal bovine serum (FBS). The next day, lentivirus with mbIL12 in tandem with a CD19-CAR construct was added in the presence of reduced serum (5% FBS). After 7 days of T cell expansion, increasing numbers of CAR+ T cells were cocultured with 10,000 GFP+, CAR-negative T cells. At the end of 1 hour of co-culture, the phospho-STAT4 levels within the GFP+ T cells were quantitated by flow cytometry using reagents and methods from BD. To determine the relative amount of IL12 activity that had accumulated in the T cell supernatants during the hour-long co-culture, cell supernatants from the co-culture were transferred to a new plate of GFP+ T cells and incubated for 1 hour. Phospho-STAT4 levels were measured in the GFP+ T cells incubated with the supernatants from the original co-culture. The transactivation ([…] geometric mean fluorescence (MFI) on GFP+ cells in co-culture) and the bystander effect (pSTAT4 geometric MFI on GFP+ T cells in 1 hour supernatants) for a CAR-IL12+:GFP+ ratio of 64 are shown in Table 20.
(§2) The transactivation (pSTAT4 geometric mean fluorescence (MFI) on GFP+ cells in co-culture) and the bystander effect (pSTAT4 geometric MFI on GFP+ T cells in 1 hour supernatants) for the constructs at different ratios are summarized below. For OT-001407, when (a) the CAR-IL12+:GFP+ ratio was 32, the transactivation was 1711 and the bystander effect was −1680, (b) the CAR-IL12+:GFP+ ratio was 16, the transactivation was 1768 and the bystander effect was −1632, (c) the CAR-IL12+:GFP+ ratio was 8, the transactivation was 1433 and the bystander effect was −1603, (d) the CAR-IL12+:GFP+ ratio was 4, the transactivation was 1195 and the bystander effect was −1860, and (e) the CAR-IL12+:GFP+ ratio was 2, the transactivation was 1101 and the bystander effect was −1800. For OT-001356, when (a) the CAR-IL12+:GFP+ ratio was 73.9, the transactivation was 6452 and the bystander effect was −2617, (b) the CAR-IL12+:GFP+ ratio was 37, the transactivation was 6935 and the bystander effect was −1404, (c) the CAR-IL12+:GFP+ ratio was 18.5, the transactivation was 6417 and the bystander effect was −226, (d) the CAR-IL12+:GFP+ ratio was 9.2, the transactivation was 5568 and the bystander effect was −86, (e) the CAR-IL12+:GFP+ ratio was 4.6, the transactivation was 4374 and the bystander effect was −518, and (f) the CAR-IL12+:GFP+ ratio was 2.3, the transactivation was 2839 and the bystander effect was −1093. For OT-001895, when (a) the CAR-IL12+:GFP+ ratio was 34.1, the transactivation was 7699 and the bystander effect was −3724, (b) the CAR-IL12+:GFP+ ratio was 17.1, the transactivation was 7718 and the bystander effect was −2996, (c) the CAR-IL12+:GFP+ ratio was 8.5, the transactivation was 8200 and the bystander effect was −1178, (d) the CAR-IL12+:GFP+ ratio was 4.3, the transactivation was 7172 and the bystander effect was −277, (e) the CAR-IL12+:GFP+ ratio was 2.1, the transactivation was 6095 and the bystander effect was −238, and (f) the CAR-IL12+:GFP+ ratio was 1.1, the transactivation was 4498 and the bystander effect was −136. For OT-002011, when (a) the CAR-IL12+:GFP+ ratio was 75.8, the transactivation was 8086 and the bystander effect was −3531, (b) the CAR-IL12+:GFP+ ratio was 37.9, the transactivation was 8031 and the bystander effect was −2884, (c) the CAR-IL12+:GFP+ ratio was 18.9, the transactivation was 8324 and the bystander effect was −1376, (d) the CAR-IL12+:GFP+ ratio was 9.5, the transactivation was 7765 and the bystander effect was −1133, (e) the CAR-IL12+:GFP+ ratio was 4.7, the transactivation was 6682 and the bystander effect was −566, and (f) the CAR-IL12+:GFP+ ratio was 2.4, the transactivation was 5190 and the bystander effect was −642. […]

[5] = tested on: phospho-STAT4 in GFP+ T cells; assay: Transactivation: phospho-STAT4 in GFP+ CAR-negative T cells after 1 hour co-culture with CAR-mbIL12 T cells, flow cytometry (Example 6; Table 20); assay type: cell-based, human
Procedure: as §1, §2

B1: OT-001356: CD19 CAR; stop; IRES; secreted IL12 (p40 23-328; (G4S)3; p35 57-253); nucleic acid SEQ ID NO: 482 (protein)
chain: IWELKKDVYVVELDWYPDAPGEMVVLTCDTPEEDGITWTLDQSSEVLGSGKTLTIQVKEFGDAGQYTCHKGGEVLSHSLLLLHKKEDGIWSTDILKDQKEPKNKTFLRCEAKNYSGRFTCWWLTTISTDLTFSVKSSRGSSDPQGVTCGAATLSAERVRGDNKEYEYSVECQEDSACPAAEESLPIEVMVDAVHKLKYENYTSSFFIRDIIKPDPPKNLQLKPLKNSRQVEVSWEYPDTWSTPHSYFSLTFCVQVQGKSKREKKDRVFTDKTSATVICRKNASISVRAQDRYYSSSWSEWASVPCSGGGGSGGGGSGGGGSRNLPVATPDPGMFPCLHHSQNLLRAVSNMLQKARQTLEFYPCTSEEIDHEDITKDKTSTVEACLPLELTKNESCLNSRETSFITNGSCLASRKTSFMMALCLSSIYEDLKMYQVEFKTMNAKLLMDPKRQIFLDQNMLAVIDELMQALNFNSETVPQKSSLEEPDFYKTKIKLCILLHAFRIRAVTIDRVMSYLNASGS
For B1, which “Average Total Nalm6-NucRed Area after 48 hour at E:T ratio of 3:1” value ([1]; E:T 3:1, 48 hour) is on record?
Its value is 33,079.

What about the “Average Total Nalm6-NucRed Area after 48 hour at E:T ratio of 10:1” value ([1]; E:T 10:1, 48 hour) of the same molecule?
The value was 32,236.

What about the “Percentage of CAR positive cells” value [2] of the same molecule?
Its value is 45.3%.

And the “Mean Total Flux (Nalm-6 Tumor Burdon)” value ([3]; day 6 post tumor implant, day −1 post T cell transfer (before infusion), 1 million CAR+ T cells)?
Its value is 2667500 photons/second.

And the “Mean Total Flux (Nalm-6 Tumor Burdon)” value ([3]; day 15 post tumor implant, day 8 post T cell transfer)?
Its value is 72220000 photons/second.

And the “Mean Total Flux (Nalm-6 Tumor Burdon)” value ([3]; day 19 post tumor implant, day 12 post T cell transfer)?
The value was 3141750 photons/second.

And the “Mean Total Flux (Nalm-6 Tumor Burdon)” value ([3]; day 22 post tumor implant, day 15 post T cell transfer)?
Its value is 1001125 photons/second.

And the “Mean Total Flux (Nalm-6 Tumor Burdon)” value ([3]; day 27 post tumor implant, day 20 post T cell transfer)?
The value was 991750 photons/second.

What about the “Mean Total Flux (Nalm-6 Tumor Burdon)” value ([3]; day 30 post tumor implant, day 23 post T cell transfer) of the same molecule?
Its value is 797000 photons/second.

And the “Mean Total Flux (Nalm-6 Tumor Burdon)” value ([3]; day 33 post tumor implant, day 26 post T cell transfer)?
Its value is 887000 photons/second.

What about the “Mean Total Flux (Nalm-6 Tumor Burdon)” value ([3]; day 36 post tumor implant, day 29 post T cell transfer) of the same molecule?
The value was 627875 photons/second.

What about the “Mean Total Flux (Nalm-6 Tumor Burdon)” value ([3]; day 41 post tumor implant, day 34 post T cell transfer) of the same molecule?
The value was 697500 photons/second.

What about the “bystander effect (pSTAT4 geometric MFI on GFP+ T cells in 1 hour supernatants)” value (“bystander effect” for short) ([4]; CAR-IL12+:GFP+ ratio 2.3) of the same molecule?
Its value is −1093.

And the “bystander effect” value ([4]; CAR-IL12+:GFP+ ratio 4.6)?
Its value is −518.

And the “bystander effect” value ([4]; CAR-IL12+:GFP+ ratio 9.2)?
The value was −86.

What about the “bystander effect” value ([4]; CAR-IL12+:GFP+ ratio 18.5) of the same molecule?
Its value is −226.

What about the “bystander effect” value ([4]; CAR-IL12+:GFP+ ratio 37) of the same molecule?
The value was −1404.

What about the “bystander effect” value ([4]; CAR-IL12+:GFP+ ratio 73.9) of the same molecule?
Its value is −2617.

And the “transactivation (pSTAT4 geometric MFI on GFP+ cells in co-culture)” value ([5]; CAR-IL12+:GFP+ ratio 2.3)?
The value was 2839.

And the “transactivation (pSTAT4 geometric MFI on GFP+ cells in co-culture)” value ([5]; CAR-IL12+:GFP+ ratio 4.6)?
The value was 4374.

What about the “transactivation (pSTAT4 geometric MFI on GFP+ cells in co-culture)” value ([5]; CAR-IL12+:GFP+ ratio 9.2) of the same molecule?
The value was 5568.

And the “transactivation (pSTAT4 geometric MFI on GFP+ cells in co-culture)” value ([5]; CAR-IL12+:GFP+ ratio 18.5)?
Its value is 6417.

What about the “transactivation (pSTAT4 geometric MFI on GFP+ cells in co-culture)” value ([5]; CAR-IL12+:GFP+ ratio 37) of the same molecule?
The value was 6935.

And the “transactivation (pSTAT4 geometric MFI on GFP+ cells in co-culture)” value ([5]; CAR-IL12+:GFP+ ratio 73.9)?
The value was 6452.

What about the Transactivation ([5]; CAR-IL12+:GFP+ ratio of 64, pSTAT4 geometric MFI on GFP+ cells, 1 hour co-culture) of the same molecule?
The Transactivation was 6452.

From patent US12227551B2, “Membrane bound IL12 compositions and methods for tunable regulation” (Obsidian Therapeutics, Inc., priority 2018, dated 2025)
